Data set [1] relates to Zea mays PPC1 (ZmPPC1, C4 PEPC). The data set is described as follows: malate dehydrogenase coupled PEPC enzymatic assay, maize C4 PPC1 and engineered variants. Particulars: for Km: 0-7.5 mM phosphoenolpyruvate, read-out: Km PEP; for Km / Vmax: 25° C, HEPES pH7.5; for increases in catalytic efficiency relative to wt ZmPPC1: Kcat/Km; for activity of C4 PEPC: substitution introduced into maize C4 PEPC (ZmPPC1). The class given is biochemical. From the text: (§1) For both Arabidopsis C3 PPC1 (AtPPC1) and maize C4 PPC1 (ZmPPC1), the entire coding sequence for each was cloned into pET22b, which contains an amino-terminal 6×-HIS tag for protein purification, and expression was driven by the T7 promoter and lac operon. Relevant mutations were introduced by the Stratagene QuikChange mutagenesis kit using PCR amplification. Both wild type and mutant cDNA constructs were sequenced entirely following cloning into pet22b. Proteins were produced by growing transformed E. coli (BL21 CodonPlus) in autoinduction medium at 18° C. for 16 hours. Proteins were isolated by sonication of bacterial cells followed by passage over a nickel sepharose affinity column, elution with imidazole and separation on a GE SUPERDEX HILOAD 200 PG 16/60 all using an AKTA FPLC.
(§2) Enzyme analysis was conducted in vitro using protein that was generated by expression in E. coli using the pET22b vector. For expression, pET22b constructs were transformed into E. coli BL21-DE3 codon plus RIL cells and grown at 37° C. in autoinduction media until reaching an OD=1 after which these were transferred to 18° C. for 18 hours. Samples were collected and lysed by sonication. Protein was purified by passage through a His-trap nickel affinity column on an Akta FPLC and then eluted with 400 mM imidazole. Partially purified protein was then separated on an FPLC equipped with a HiPrep S200 size exclusion column (16/60) after which collected sample was concentrated by centrifugation to a final concentration of 4 mg/ml in 50% glycerol. Samples were stored at −20° C.
(§3) For enzymatic assays, a malate dehydrogenase coupled reaction was conducted with a range of substrate concentrations (0-7.5 mM phosphoenolpyruvate pyruvate) and a range of concentrations of allosteric inhibitor (0-50 mM malate). Assays were monitored using a Victor2 microplate reader at 25° C. Reactions consisted of […] PPC enzyme variants, 50 mM HEPES pH7.5, 10 mM MgCl2, 10 mM KHCO3 (carbonate substrate), 0.2 mM NADH, and 10 units/ml of malate dehydrogenase. Reaction time was 15 minutes and samples were measured on an ˜40 second interval. For measurement, which monitors loss of NADH, excitation wavelength was 340 nM and emission wavelength was 460 nM.

Data set [2] deals with Arabidopsis thaliana PPC1 (AtPPC1, C3 PEPC). In words: malate dehydrogenase coupled PEPC enzymatic assay, Arabidopsis C3 PPC1 and engineered variants. Particulars: 25° C, HEPES pH7.5. It counts as biochemical.
Source text: as §1, §2
as §3, with “nM. From these assays, the enzyme kinetics of Tables 4-1 and 4-2 were determined for each enzyme variant.” for “nM.”

Four molecules from patent US12168773B2, “Engineered phosphoenolpyruvate carboxylase enzymes” (The Regents of the University of California, priority 2019, dated 2024) can be followed below.

B1: ZmPPC1 G678S: engineered Zea mays PPC1 with G678S substitution (G682S in SEQ ID NO:15) (protein)
chain: MASTKAPGPGEKHHSIDAQLRQLVPGKVSEDDKLIEYDALLVDRFLNILQDLHGPSLREFVQECYEVSADYEGKGDTTKLGELGAKLTGLAPADAILVASSILHMLNLANLAEEVQIAHRRRNSKLKKGGFADEGSATTESDIEETLKRLVSEVGKSPEEVFEALKNQTVDLVFTAHPTQSARRSLLQKNARIRNCLTQLNAKDITDDDKQELDEALQREIQAAFRTDEIRRAQPTPQDEMRYGMSYIHETVWKGVPKFLRRVDTALKNIGINERLPYNVSLIRFSSWMGGDRDGNPRVTPEVTRDVCLLARMMAANLYIDQIEELMFELSMWRCNDELRVRAEELHSSSGSKVTKYYIEFWKQIPPNEPYRVILGHVRDKLYNTRERARHLLASGVSEISAESSFTSIEEFLEPLELCYKSLCDCGDKAIADGSLLDLLRQVFTFGLSLVKLDIRQESERHTDVIDAITTHLGIGSYREWPEDKRQEWLLSELRGKRPLLPPDLPQTDEIADVIGAFHVLAELPPDSFGPYIISMATAPSDVLAVELLQRECGVRQPLPVVPLFERLADLQSAPASVERLFSVDWYMDRIKGKQQVMVGYSDSGKDAGRLSAAWQLYRAQEEMAQVAKRYGVKLTLFHGRGGTVGRGGGPTHLAILSQPPDTINGSIRVTVQGEVIEFCFSEEHLCFQTLQRFTAATLEHGMHPPVSPKPEWRKLMDEMAVVATEEYRSVVVKEARFVEYFRSATPETEYGRMNIGSRPAKRRPGGGITTLRAIPWIFSWTQTRFHLPVWLGVGAAFKFAIDKDVRNFQVLKEMYNEWPFFRVTLDLLEMVFAKGDPGIAGLYDELLVAEELKPFGKQLRDKYVETQQLLLQIAGHKDILEGDPFLKQGLVLRNPYITTLNVFQAYTLKRIRDPNFKVTPQPPLSKEFADENKPAGLVKLNPASEYPPGLEDTLILTMKGIAAGMQNTG
Take B1: in data set [1], the “effects of the allosteric inhibitor malate relative to wt ZmPPC1” value is reported as “greatly reduce”, the Km was determined as 2660 ± 333 µM, the Vmax turned out to be 17.74 ± 1.04 units/mg and the “increases in catalytic efficiency relative to wt ZmPPC1” value is around 200%. The “activity of C4 PEPC” value in data set [1] is “increased activity”.

B2: ZmPPC1 T7781: engineered Zea mays PPC1 with T778I substitution (T782I in SEQ ID NO:15) (protein)
chain: MASTKAPGPGEKHHSIDAQLRQLVPGKVSEDDKLIEYDALLVDRFLNILQDLHGPSLREFVQECYEVSADYEGKGDTTKLGELGAKLTGLAPADAILVASSILHMLNLANLAEEVQIAHRRRNSKLKKGGFADEGSATTESDIEETLKRLVSEVGKSPEEVFEALKNQTVDLVFTAHPTQSARRSLLQKNARIRNCLTQLNAKDITDDDKQELDEALQREIQAAFRTDEIRRAQPTPQDEMRYGMSYIHETVWKGVPKFLRRVDTALKNIGINERLPYNVSLIRFSSWMGGDRDGNPRVTPEVTRDVCLLARMMAANLYIDQIEELMFELSMWRCNDELRVRAEELHSSSGSKVTKYYIEFWKQIPPNEPYRVILGHVRDKLYNTRERARHLLASGVSEISAESSFTSIEEFLEPLELCYKSLCDCGDKAIADGSLLDLLRQVFTFGLSLVKLDIRQESERHTDVIDAITTHLGIGSYREWPEDKRQEWLLSELRGKRPLLPPDLPQTDEIADVIGAFHVLAELPPDSFGPYIISMATAPSDVLAVELLQRECGVRQPLPVVPLFERLADLQSAPASVERLFSVDWYMDRIKGKQQVMVGYSDSGKDAGRLSAAWQLYRAQEEMAQVAKRYGVKLTLFHGRGGTVGRGGGPTHLAILSQPPDTINGSIRVTVQGEVIEFCFGEEHLCFQTLQRFTAATLEHGMHPPVSPKPEWRKLMDEMAVVATEEYRSVVVKEARFVEYFRSATPETEYGRMNIGSRPAKRRPGGGITTLRAIPWIFSWIQTRFHLPVWLGVGAAFKFAIDKDVRNFQVLKEMYNEWPFFRVTLDLLEMVFAKGDPGIAGLYDELLVAEELKPFGKQLRDKYVETQQLLLQIAGHKDILEGDPFLKQGLVLRNPYITTLNVFQAYTLKRIRDPNFKVTPQPPLSKEFADENKPAGLVKLNPASEYPPGLEDTLILTMKGIAAGMQNTG
With B2, in data set [1], the “effects of the allosteric inhibitor malate relative to wt ZmPPC1” value is reported as “greatly reduce”, the Km was found to be 1190 ± 104 µM, the Vmax turned out to be 14.05 ± 0.44 units/mg and the “increases in catalytic efficiency relative to wt ZmPPC1” value is given as around 300%. Moreover, in data set [1], the “activity of C4 PEPC” value is given as “increased activity”.

B3: ZmPPC1 wild type: wild type Zea mays PPC1, C4 PEPC, SEQ ID NO:15 (protein)
chain: MASTKAPGPGEKHHSIDAQLRQLVPGKVSEDDKLIEYDALLVDRFLNILQDLHGPSLREFVQECYEVSADYEGKGDTTKLGELGAKLTGLAPADAILVASSILHMLNLANLAEEVQIAHRRRNSKLKKGGFADEGSATTESDIEETLKRLVSEVGKSPEEVFEALKNQTVDLVFTAHPTQSARRSLLQKNARIRNCLTQLNAKDITDDDKQELDEALQREIQAAFRTDEIRRAQPTPQDEMRYGMSYIHETVWKGVPKFLRRVDTALKNIGINERLPYNVSLIRFSSWMGGDRDGNPRVTPEVTRDVCLLARMMAANLYIDQIEELMFELSMWRCNDELRVRAEELHSSSGSKVTKYYIEFWKQIPPNEPYRVILGHVRDKLYNTRERARHLLASGVSEISAESSFTSIEEFLEPLELCYKSLCDCGDKAIADGSLLDLLRQVFTFGLSLVKLDIRQESERHTDVIDAITTHLGIGSYREWPEDKRQEWLLSELRGKRPLLPPDLPQTDEIADVIGAFHVLAELPPDSFGPYIISMATAPSDVLAVELLQRECGVRQPLPVVPLFERLADLQSAPASVERLFSVDWYMDRIKGKQQVMVGYSDSGKDAGRLSAAWQLYRAQEEMAQVAKRYGVKLTLFHGRGGTVGRGGGPTHLAILSQPPDTINGSIRVTVQGEVIEFCFGEEHLCFQTLQRFTAATLEHGMHPPVSPKPEWRKLMDEMAVVATEEYRSVVVKEARFVEYFRSATPETEYGRMNIGSRPAKRRPGGGITTLRAIPWIFSWTQTRFHLPVWLGVGAAFKFAIDKDVRNFQVLKEMYNEWPFFRVTLDLLEMVFAKGDPGIAGLYDELLVAEELKPFGKQLRDKYVETQQLLLQIAGHKDILEGDPFLKQGLVLRNPYITTLNVFQAYTLKRIRDPNFKVTPQPPLSKEFADENKPAGLVKLNPASEYPPGLEDTLILTMKGIAAGMQNTG
For the molecule B3, in data set [1], the Km was determined as 4620 ± 406 µM and the Vmax is listed as 17.56 ± 2.35 units/mg. Further, the “effect of malate on enzyme” value in data set [1] (at 50 mM malate) is listed as “completely inhibited”.

B4: AtPPC1 A651V: engineered Arabidopsis thaliana PPC1 with A651V substitution (alr-108), SEQ ID NO:10 (protein)
chain: MANRKLEKMASIDVHLRQLVPGKVSEDDKLVEYDALLLDRFLDILQDLHGEDLRETVQELYEHSAEYEGKHEPKKLEELGSVLTSLDPGDSIVIAKAFSHMLNLANLAEEVQIAYRRRIKKLKKGDFVDESSATTESDLEETFKKLVGDLNKSPEEIFDALKNQTVDLVLTAHPTQSVRRSLLQKHGRIRDCLAQLYAKDITPDDKQELDEALQREIQAAFRTDEIKRTPPTPQDEMRAGMSYFHETIWKGVPKFLRRVDTALKNIGIEERVPYNAPLIQFSSWMGGDRDGNPRVTPEVTRDVCLLARMMAATMYFNQIEDLMFEMSMWRCNDELRARADEVHANSRKDAAKHYIEFWKSIPTTEPYRVILGDVRDKLYHTRERAHQLLSNGHSDVPVEATFINLEQFLEPLELCYRSLCSCGDRPIADGSLLDFLRQVSTFGLSLVRLDIRQESDRHTDVLDAITTHLDIGSYREWSEERRQEWLLSELSGKRPLFGSDLPKTEEIADVLDTFHVIAELPADSFGAYIISMATAPSDVLAVELLQRECRVKQPLRVVPLFEKLADLEAAPAAVARLFSVDWYKNRINGKQEVMIGYSDSGKDAGRLSAAWQLYKAQEELVKVAKEYGVKLTMFHGRGGTVGRGGGPTHLVILSQPPDTINGSLRVTVQGEVIEQSFGEEHLCFRTLQRFTAATLEHGMRPPISPKPEWRALLDEMAVVATEEYRSVVFQEPRFVEYFRLATPELEYGRMNIGSRPSKRKPSGGIESLRAIPWIFAWTQTRFHLPVWLGFGSAIRHVIEKDVRNLHMLQDMYQHWPFFRVTIDLIEMVFAKGDPGIAALYDKLLVSEELWPFGEKLRANFEETKKLILQTAGHKDLLEGDPYLKQRLRLRDSYITTLNVCQAYTLKRIRDPSYHVTLRPHISKEIAESSKPAKELIELNPTSEYAPGLEDTLILTMKGIAAGLQNTG
As to B4, the Km in data set [2] (0-7.5 mM phosphoenolpyruvate, read-out: Km PEP) worked out at 956 ± 40 µM. Moreover, in data set [2], the Vmax is 15.776 ± 0.25 units/mg.
